Measurements as given in the supplement of paper PMC12764529.
± gives the half width of the 95% confidence interval.

Columns and labels:
[1] = folding stability dG unfold (combined trypsin and chymotrypsin); higher = more stable
In short: (§1)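 Digests were run with trypsin and chymotrypsin at 11 concentrations in threefold dilutions, plus a no-protease condition, on designed mini-proteins in a PA-tagged cDNA display construct. The mini-proteins were under 80 residues, had no cysteine, and were kept only when AlphaFold2 dimer inter-PAE was above 15. After sequencing, Bayesian fitting of the counts gave K50, from which unfolding free energy was derived against a sequence-predicted unfolded-state K50 and a shared folded-state K50, per protease or combined.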

[2] = folding stability dG unfold from chymotrypsin proteolysis; higher = more stable
In short: as §1

[3] = folding stability dG unfold from trypsin proteolysis; higher = more stable
In short: as §1

Sequence | folding stability dG unfold [1] | folding stability dG unfold [2] | folding stability dG unfold [3]
SAKFRVSISYDPPDGYLTIMFRYPNPNQPITPEEIEEIAREILEERGHKVKIDEIHHEGNYFMIKIKLPSAG [r14_556_TrROS] | 2.75 ± 0.2 kcal/mol | 2.54 ± 0.11 kcal/mol | 2.51 ± 0.11 kcal/mol
SKIKIKAKDKKTNIPIDEIDIYPLEDGSYGIKIIFTFPKEKKEITIPIPKNKKIEEFIKALGLEEIEIDASA [r9_492_TrMRF] | 1.79 ± 0.23 kcal/mol | 2.33 ± 0.13 kcal/mol | 1 ± 0.1 kcal/mol
SAMEVKIEKVEVKDGTVRITVTVKVSEEQLEKVKELAEKLKEKGYEVKVVKVEKLEDGTIKVEIEVKPKSAG [r14_354_TrROS_Hall] | 2.66 ± 0.92 kcal/mol | 2.36 ± 0.17 kcal/mol | 2.7 ± 0.32 kcal/mol
SAGGSAGGSPYTIMYPIPGDTVEEVKDIAKEIMEHFPNFKITVSVEPPKDGQYWVTIELEMPDSAGGSAGGS [r12_425_TrROS] | 2.09 ± 0.15 kcal/mol | 2.23 ± 0.049 kcal/mol | 1.87 ± 0.11 kcal/mol
SAGGSAGGSAMPPDAKPVRTETDPATGTTTEYILYPDSDTTIRKTHLPDGSVQVEEFSVSKTSAGGSAGGSA [r18_521_JUSTAS] | -0.491 ± 0.29 kcal/mol | -0.491 ± 0.17 kcal/mol | -0.743 ± 0.15 kcal/mol
SAGGSAGGDESSTPPVTTTSTTPLPDGSTVTVTSTTTYPDSTTTTTKTYSNGSTTTSTTTTPGSSAGGSAGG [r6_910_JUSTAS] | -0.285 ± 0.13 kcal/mol | -0.803 ± 0.35 kcal/mol | -0.0832 ± 0.051 kcal/mol
SAGEWYRMSITFDLDPDNRDQLEKIAEKIREKDGFDKIEPVEHDPSNGRVTINVYMPPEAQDKIQEALRSAG [r5_193_TrROS] | 1.27 ± 0.18 kcal/mol | 1.25 ± 0.15 kcal/mol | 0.941 ± 0.1 kcal/mol
SAGGSAGGSSMSSTVEKEPDDVLIISTKVFFDTDTYSTLTTIVEVKPPLDPSNPELLARALGLLSAGGSAGG [r6_293_JUSTAS] | 1.3 ± 0.063 kcal/mol | 1.49 ± 0.039 kcal/mol | 1.1 ± 0.026 kcal/mol
SAGGSAGGSAYELVIVGTPELALKLAKEFAEKNPESVANLKIEKITAALPVPFLSPDGIPESAGGSAGGSAG [r3_89_TrMRF] | 0.0822 ± 0.24 kcal/mol | 0.207 ± 0.39 kcal/mol | 0.0947 ± 0.1 kcal/mol
SAGGSASLFIPVPPTDTSPVTVEITIGNSKYRATLTVDPNNPNLMTVTLTDPNGGATTTETVPLLDSAGGSA [r15_328_JUSTAS] | 1.79 ± 0.069 kcal/mol | 1.78 ± 0.031 kcal/mol | 1.8 ± 0.034 kcal/mol
SAGGSAGGMLSPEVLEDPEKVIEFLKKMIPGLKIVVPPDAPPEVVEAAAKLAEETGIPVEIVVGSAGGSAGG [r6_129_TrMRF] | 0.555 ± 0.18 kcal/mol | -0.539 ± 0.48 kcal/mol | 1.06 ± 0.026 kcal/mol
SAGGMEVVEIKYDPETGTVTVTVAIPESLSFDEVAPEVEALVKEKTGRPVEITVDPATGTVTATVPRSAGGS [r8_314_JUSTAS] | 1.15 ± 0.072 kcal/mol | 1.39 ± 0.058 kcal/mol | 0.832 ± 0.031 kcal/mol
SAGGSMVEVIVIDKDGKEHKILIPPELKPEEVAEKVKKFLEDEGYEVESIEIEELPEGFSKVIVNASAGGSA [r2_148_TrMRF] | 1.68 ± 0.21 kcal/mol | 1.45 ± 0.18 kcal/mol | 2.05 ± 0.078 kcal/mol
SAGGLKIPVGSAEDALKAFEAIEEPVLVRTKDRKFVRELKLEDIKELVEKGVEFEFVLPSELPEEERKESAG [r5_677_TrMRF] | 0.566 ± 0.39 kcal/mol | 0.573 ± 0.21 kcal/mol | 0.574 ± 0.07 kcal/mol
SAGGSAGGSAGKKPIKEVTITLPPGAKIVKIEIEKTEDGKYILKITVEVDGKLYEFTFELSAGGSAGGSAGG [r11_1013_TrROS_Hall] | 3.98 ± 0.29 kcal/mol | 4.27 ± 0.14 kcal/mol | 3.13 ± 0.25 kcal/mol
SAGGGTFYLVVKVEKVAPNPETGELVEERLELVIPGKAPNAVSEEDLKAFVDALLPLGYKVEVELREGSAGG [r13_926_TrMRF] | 2.07 ± 0.2 kcal/mol | 2.07 ± 0.12 kcal/mol | 1.91 ± 0.12 kcal/mol
SLDPGEPVYRIKVKIEMWNPNGKPIAEFTIPIRTLEEAKEAIKEMAREIAEKMGHPDMPIRIKDIEIEPYSA [r9_376_TrROS] | 2.27 ± 0.099 kcal/mol | 2.21 ± 0.045 kcal/mol | 2.29 ± 0.033 kcal/mol
SAGGSAGGKKNNKPKPILVKIEIINKNGKKKVFTKEFKSLEEAKKFIEKALPKGYSAKIEIIPGSAGGSAGG [r6_289_TrMRF] | 3.18 ± 0.29 kcal/mol | 3.36 ± 0.062 kcal/mol | 2.25 ± 0.2 kcal/mol
SAPEVFRFTIPRYRDDYEFDGDGYPVLKERKPVAPLEVEAVVFEDGTVRVRVGDEVREFPLGVSPEELFSAG [r14_909_TrMRF] | 0.566 ± 0.1 kcal/mol | 0.355 ± 0.18 kcal/mol | 0.601 ± 0.22 kcal/mol
GSMTIPVVLPPGVRLPLSELWAIAKQYGGKLTATVYDPETGTSTSVTFPGGQLGDSTMAPGERTVNVTVVGS [r1_238_JUSTAS] | 0.759 ± 0.076 kcal/mol | 0.825 ± 0.09 kcal/mol | 0.527 ± 0.031 kcal/mol
SAGGSAGGSAGPPNKPVYVRVRIQMPNGKKKTFWFKDVEQIEKNLKEEFGIRDIEIEPIKSAGGSAGGSAGG [r17_508_TrROS] | 1.67 ± 0.046 kcal/mol | 1.71 ± 0.026 kcal/mol | 1.62 ± 0.028 kcal/mol

Sequence | folding stability dG unfold [1] | folding stability dG unfold [2] | folding stability dG unfold [3]
SAGGSAGGSAGDWIMFNFTYKDPGDPGKERTITILIPIPPPPPPEPKPVKDPNGNEGPVYSAGGSAGGSAGG [r11_419_TrROS] | 1.99 ± 0.18 kcal/mol | 1.86 ± 0.08 kcal/mol | 1.69 ± 0.1 kcal/mol
SAGGSAGGSLNPEKPSVRIRIKVQKPDGSYEEIDIEVPFQDIPDVIDELKKKGYKILSIELEPSAGGSAGGS [r12_986_TrMRF] | 4.37 ± 0.18 kcal/mol | 4.31 ± 0.08 kcal/mol | 4.45 ± 0.18 kcal/mol
SAGGSAGGSAAPLYELEILSVDLDPDNPTVYVLARIPGTSNYVLITFPPNGDVYAYASPLPSAGGSAGGSAG [r3_294_TrMRF] | 2.25 ± 0.17 kcal/mol | 2.37 ± 0.06 kcal/mol | 1.95 ± 0.06 kcal/mol
SAGGPDWKTVEVEIQVKDPEDRPEAIEEAEEWAQELAENNPGYKIKGVDVEIWPHNGWYQIRIPITVESAGG [r13_305_TrROS] | 0.79 ± 0.19 kcal/mol | 1.01 ± 0.21 kcal/mol | 0.733 ± 0.1 kcal/mol
SAGGMKPGEIVEKITIEIEINGKKYKIEMTFYKDNGIIEIKIYNKNGKLIKTFKFYIDPKTKKIILLSAGGS [r16_798_TrROS_Hall] | 3.68 ± 0.34 kcal/mol | 3.81 ± 0.098 kcal/mol | 3.66 ± 0.14 kcal/mol
SAGGMKLPENAKVVKKIEIKDEKTGKTFKATIVKNKDGSLYIFIEKDGKIYKFKIENGKIKMEEIPPSAGGS [r16_711_TrROS_Hall] | 4.07 ± 0.55 kcal/mol | 4.37 ± 0.25 kcal/mol | 3.75 ± 0.75 kcal/mol
SAGGSAGGSAGGKTYTADEIKKIKKINGKWYVEIDGKTYEIPAKDIKIKKGDKIKIYPVSAGGSAGGSAGGS [r10_665_TrROS_Hall] | 1.57 ± 0.16 kcal/mol | 1.59 ± 0.091 kcal/mol | 1.45 ± 0.059 kcal/mol
SAGGSAGGSAGDNIYVFEIDIKIKPRKDPDGKWQPEIEINIKIKDIKPIPPNDPELKDLLSAGGSAGGSAGG [r11_236_TrROS] | 1.94 ± 0.07 kcal/mol | 1.99 ± 0.036 kcal/mol | 2 ± 0.05 kcal/mol
SAGGPTLKVKIYLPEEGKVIEFTFEAKKDEAEKIAKELEKLFPGYKLEGVKIFETPDSIELLAVASPESAGG [r13_196_TrMRF] | 3.52 ± 0.069 kcal/mol | 3.65 ± 0.075 kcal/mol | 3.26 ± 0.11 kcal/mol
SAGGSAGGSWDRIKDALRKYGFPPENVKIEFETYPNGNMNVMIRHNGEQIPRNRINKAIQELMSAGGSAGGS [r12_175_TrROS] | 1.54 ± 0.22 kcal/mol | 1.46 ± 0.096 kcal/mol | 1.27 ± 0.035 kcal/mol
SAGGNWIWRIKFPGRSIHFNWEQGNIEIWPPDGEEKTIPLPPGEPLEEFADEFAEKNGFDKVEIEPVPSAGG [r13_852_TrROS] | 1.95 ± 0.21 kcal/mol | 1.94 ± 0.24 kcal/mol | 2.08 ± 0.11 kcal/mol
SPSADAKVRVEPLPGPGYLATLEDGSLVLVHPDGTVIEVTETKVRIRVFTPDKPLLELEIEIPPPAPDEPSA [r9_901_TrMRF] | 1.18 ± 0.16 kcal/mol | 1.26 ± 0.066 kcal/mol | 0.803 ± 0.095 kcal/mol
SAGGMPPDARKLIREIAQDFGMSDIEPDEEGHVRINMPNPMMIQVDVENGEPKIKIYNNNKWREIPISAGGS [r16_296_TrROS] | 0.437 ± 0.13 kcal/mol | 0.411 ± 0.31 kcal/mol | 0.355 ± 0.079 kcal/mol
SAGGETKTFTIDEIRAKLKEALDNGIDEVRITVFRDGKEEEITIPASKLDEIIASLPPDATVRIERVSAGGS [r16_636_TrROS_Hall] | 1.97 ± 0.13 kcal/mol | 1.86 ± 0.11 kcal/mol | 2.02 ± 0.042 kcal/mol
SAGGSAGGKGKLVDEPPIRDPNNGKDVWAFIMDPDGRMEVYDPNEIEEIPLKPGQIMIFTPEDLSAGGSAGG [r6_627_TrROS] | 0.648 ± 0.16 kcal/mol | 0.168 ± 0.34 kcal/mol | 0.757 ± 0.069 kcal/mol
SMTIRIVDEKTKEVREIKIENLTVEKEKDGRYRMTREQVLEALKKLLPEDVKIVEVEENEDGELTIVVEPSA [r9_997_TrROS_Hall] | 2.77 ± 0.083 kcal/mol | 2.906 ± 0.025 kcal/mol | 2.41 ± 0.051 kcal/mol
SAGGSAGGSAGGGLVPIPVNAILLDENGVPKGTFDGYPLLKAGIPLEEFAKKYGFKVETSAGGSAGGSAGGS [r10_153_TrMRF] | -0.552 ± 0.16 kcal/mol | -0.57 ± 0.24 kcal/mol | -1.08 ± 0.37 kcal/mol
SAGGSAGGSAGALPFKVKVVEVEVDGDEVTVKVVAELPTGTATVELKLGGKLETLTISPVSAGGSAGGSAGG [r17_45_TrMRF] | 2.16 ± 0.24 kcal/mol | 2.47 ± 0.13 kcal/mol | 1.49 ± 0.19 kcal/mol
SAGGSAGGSAKTITITVKPEDMTEEELKEKIAEELGIDPEEIEIVKVEKLPNGEVKVTIKIKSAGGSAGGSA [r18_118_TrROS_Hall] | 3.08 ± 0.16 kcal/mol | 1.93 ± 0.11 kcal/mol | 3.59 ± 0.17 kcal/mol
SRIKITVKPKPDGNFYIKIWFPNNGKPFIFPIKNPDAMDEARDDPGQTIEVPEDYLRSLFPDNFTDVEIVSA [r9_390_TrROS] | 1.25 ± 0.064 kcal/mol | 1.16 ± 0.12 kcal/mol | 1.31 ± 0.015 kcal/mol
SAGGSAGGGMPSITLLETVEEKLPGSRTRVTTLSYDPATGNLVVTTTTFASPGTSTTSTTVLPPSAGGSAGG [r6_745_JUSTAS] | 1.33 ± 0.074 kcal/mol | 1.51 ± 0.069 kcal/mol | 1.13 ± 0.038 kcal/mol
